This assay has as its target DS-Cav1 (soluble trimeric RSV prefusion F ectodomain) (respiratory syncytial virus | bacteriophage T4) (UniProt P03420). Kind of assay: native gel or EMSA; native-PAGE and native western blot of the purified soluble RSV F protein. In general terms: A gel shift assay detects complexes by their altered migration in electrophoresis.

In turn, “DS-Cav1 (soluble trimeric RSV prefusion F ectodomain) (from UniProt P03420 26-513)” showed a stoichiometry N of 3.

What is called stoichiometry N is a count of units in the complex or per binding partner.

Source of the values: PMC12172430.
